Where a chain is given by its changes, count along the chain named. Ends that are not written are not given here.
B1: SEQ ID NO: 56 (peptide)
peptide: HXQGTFTSDLSKQKESRAAQDFIEWLKAGGPSSGAPPPS
modifications: dSer at 2; K(GABA-x74) at 14; C-terminal NH2
B2: SEQ ID NO: 86 (peptide)
peptide: B1 peptide with E15D, R17Q, A28N, G29T
modifications: dSer at 2; K(γE-x53) at 14; C-terminal NH2
B3: SEQ ID NO: 81 (peptide)
peptide: B1 peptide with E15D, A18R, A28D
modifications: dSer at 2; K(x53) at 14; C-terminal NH2
B4: SEQ ID NO: 85 (peptide)
peptide: B1 peptide with A18R, A28K
modifications: dSer at 2; K(γE-x53) at 14; C-terminal NH2
B5: SEQ ID NO: 79 (peptide)
peptide: B1 peptide with A18R, A28X
modifications: dSer at 2; K(γE-x53) at 14; Aib at 28; C-terminal NH2
B6: SEQ ID NO: 55 (peptide)
peptide: B1 peptide
modifications: dSer at 2; K(γE-x74) at 14; C-terminal NH2
B7: SEQ ID NO: 11 (peptide)
peptide: B1 peptide with R17X
modifications: dSer at 2; K(γE-x70) at 14; Aib at 17; C-terminal NH2
B8: SEQ ID NO: 70 (peptide)
peptide: B1 peptide with D21L
modifications: dSer at 2; K(γE-x53) at 14; C-terminal NH2
B9: SEQ ID NO: 59 (peptide)
peptide: B1 peptide
modifications: dSer at 2; K(γE-x76) at 14; C-terminal NH2
B10: SEQ ID NO: 89 (peptide)
peptide: B1 peptide with E15D, A18R, A28N
modifications: dSer at 2; K(γE-x60) at 14; C-terminal NH2
B11: SEQ ID NO: 52 (peptide)
peptide: B1 peptide
modifications: dSer at 2; K(γE-γE-x70) at 14; C-terminal NH2
B12: SEQ ID NO: 65 (peptide)
peptide: B1 peptide
modifications: dSer at 2; K(γE-x70) at 14; C-terminal NH2
B13: SEQ ID NO: 71 (peptide)
peptide: B1 peptide with K14X, A18R
modifications: dSer at 2; Orn(γE-x53) at 14; C-terminal NH2
B14: SEQ ID NO: 69 (peptide)
peptide: B1 peptide with A18R, D21L
modifications: dSer at 2; K(x53) at 14; C-terminal NH2
B15: SEQ ID NO: 96 (peptide)
peptide: B1 peptide with A18R, A28N, G29T
modifications: dSer at 2; K(γE-x53) at 14; C-terminal NH2
B16: SEQ ID NO: 83 (peptide)
peptide: B1 peptide with A18R, A28E, A35R
modifications: dSer at 2; K(x53) at 14; C-terminal NH2
B17: SEQ ID NO: 67 (peptide)
peptide: B1 peptide with E15D, A18R, Q20X
modifications: dSer at 2; K(γE-x53) at 14; Aib at 20; C-terminal NH2
B18: SEQ ID NO: 66 (peptide)
peptide: B1 peptide
modifications: dSer at 2; K(x53) at 14; C-terminal NH2
B19: SEQ ID NO: 93 (peptide)
peptide: B1 peptide with E15D, A18R, A28N, G29A
modifications: dSer at 2; K(γE-x53) at 14; C-terminal NH2
B20: SEQ ID NO: 90 (peptide)
peptide: B1 peptide with E15D, A18R, A28N
modifications: dSer at 2; K(γE-x69) at 14; C-terminal NH2
B21: SEQ ID NO: 94 (peptide)
peptide: B1 peptide with E15D, A18R, A28N, G29X
modifications: dSer at 2; K(γE-x53) at 14; dAla at 29; C-terminal NH2
B22: SEQ ID NO: 80 (peptide)
peptide: B1 peptide with E15D, A18R, A28D
modifications: dSer at 2; K(γE-x53) at 14; C-terminal NH2
B23: SEQ ID NO: 87 (peptide)
peptide: HXQGTFTSDLSKQKDERRAKDFIEWLKNGGPSSGAPPPS
modifications: dSer at 2; K(γE-x53) at 14; C-terminal NH2
B24: SEQ ID NO: 6 (peptide)
peptide: HXQGTFTSDLSKQKESRRAQLFIEWLKAGGPSSGAPPPSK
modifications: dSer at 2; K(γE-x53) at 14; K(γE-x53) at 40; C-terminal NH2
B25: GLP-1(7-36)-amide (peptide)
peptide: HAEGTFTSDVSSYLEGQAAKEIAWLVKGR-NH2

The binders below were run against human GLP-1 receptor (human, UniProt P43220 24-463) (assay: cell-based or functional assay).

B1 and B2 are within 1.5-fold of each other in “EC50 hGLP-1R (cAMP)” value: 4.5 pM for the first, 4.9 pM for the second.

First: B3
Second: B4
The “EC50 hGLP-1R (cAMP)” value of the first is 5.9-fold higher: 48 pM for the first, 8.1 pM for the second.

First: B5
Second: B6
The “EC50 hGLP-1R (cAMP)” value of the first is 4.3-fold higher: 23.3 pM for the first, 5.4 pM for the second.

Compared with B7, B8 is 1.8-fold higher in “EC50 hGLP-1R (cAMP)” value: 3.6 pM for the first, 6.5 pM for the second.

Compared with B9, B10 is 4.5-fold higher in “EC50 hGLP-1R (cAMP)” value: 7.9 pM for the first, 35.6 pM for the second.

Going from B11 to B12, the “EC50 hGLP-1R (cAMP)” value rises from 1.9 pM to 5 pM (2.6-fold).

First: B13
Second: B14
The “EC50 hGLP-1R (cAMP)” value of the first is 2.2-fold lower: 20.5 pM for the first, 44.8 pM for the second.

B15 and B16 are within 1.5-fold of each other in “EC50 hGLP-1R (cAMP)” value: 74.3 pM for the first, 53.9 pM for the second.

First: B17
Second: B18
The “EC50 hGLP-1R (cAMP)” value of the first is 1.9-fold higher: 15.7 pM for the first, 8.4 pM for the second.

B19 and B20 are within 1.5-fold of each other in “EC50 hGLP-1R (cAMP)” value: 10.7 pM for the first, 8.8 pM for the second.

B21 and B22 are within 1.5-fold of each other in “EC50 hGLP-1R (cAMP)” value: 5.2 pM for the first, 5.8 pM for the second.

First: B23
Second: B24
The “EC50 hGLP-1R (cAMP)” value of the first is 47-fold lower: 3 pM for the first, 141 pM for the second.

In the case of B25, the “EC50 hGLP-1R (cAMP)” value is reported as 0.7 pM.

Each binder was assayed against human glucagon receptor (human, UniProt P47871 26-477) (assay: cell-based or functional assay).
human glucagon receptor, sequence (P47871 26-477): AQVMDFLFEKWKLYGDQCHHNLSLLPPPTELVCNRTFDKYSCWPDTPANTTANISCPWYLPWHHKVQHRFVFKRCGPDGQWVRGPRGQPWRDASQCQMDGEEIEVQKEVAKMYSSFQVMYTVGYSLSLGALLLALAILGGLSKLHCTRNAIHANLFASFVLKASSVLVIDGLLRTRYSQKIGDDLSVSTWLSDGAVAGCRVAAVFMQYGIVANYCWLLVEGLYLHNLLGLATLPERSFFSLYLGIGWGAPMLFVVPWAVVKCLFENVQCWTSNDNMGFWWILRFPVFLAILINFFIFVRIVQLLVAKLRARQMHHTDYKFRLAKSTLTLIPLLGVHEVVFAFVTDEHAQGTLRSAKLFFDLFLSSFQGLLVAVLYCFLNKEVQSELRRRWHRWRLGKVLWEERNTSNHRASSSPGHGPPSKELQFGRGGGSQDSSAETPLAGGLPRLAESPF

Going from B1 to B2, the “EC50 hGlucagon-R (cAMP)” value falls from 29.3 pM to 3.5 pM (8.4-fold).

B3 and B4 are within 1.5-fold of each other in “EC50 hGlucagon-R (cAMP)” value: 7.1 pM for the first, 10.4 pM for the second.

Going from B5 to B6, the “EC50 hGlucagon-R (cAMP)” value rises from 7.5 pM to 15.8 pM (2.1-fold).

First: B7
Second: B8
The “EC50 hGlucagon-R (cAMP)” value of the first is 1.6-fold lower: 25.7 pM for the first, 40.9 pM for the second.

First: B9
Second: B10
The “EC50 hGlucagon-R (cAMP)” value of the first is 2-fold lower: 6.8 pM for the first, 13.7 pM for the second.

Compared with B11, B12 is 2.8-fold higher in “EC50 hGlucagon-R (cAMP)” value: 2 pM for the first, 5.6 pM for the second.

First: B13
Second: B14
The “EC50 hGlucagon-R (cAMP)” value of the first is 9.4-fold lower: 5.6 pM for the first, 52.4 pM for the second.

First: B15
Second: B16
The “EC50 hGlucagon-R (cAMP)” value of the first is 12-fold lower: 3.4 pM for the first, 41.3 pM for the second.

Going from B17 to B18, the “EC50 hGlucagon-R (cAMP)” value rises from 3 pM to 113 pM (38-fold).

B19 and B20 are within 1.5-fold of each other in “EC50 hGlucagon-R (cAMP)” value: 2.6 pM for the first, 3.7 pM for the second.

Compared with B21, B22 is 2.1-fold lower in “EC50 hGlucagon-R (cAMP)” value: 2.1 pM for the first, 1 pM for the second.

First: B23
Second: B24
The “EC50 hGlucagon-R (cAMP)” value of the first is 15-fold lower: 1.3 pM for the first, 18.9 pM for the second.
